Data from publication PMC4397538 (2015).

Biological target: T1, Biotin-BH4-Bcl-XL (Homo sapiens (Human), UniProt Q07817, biotin on the N-terminus (also used without the biotin tag))
T1 chain: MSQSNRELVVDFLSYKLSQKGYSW
Experiment: SPR

B1: GST-tagged IP3R1 domain 3 (mouse IP3R1, a.a. 923-1581) (protein)
chain: SIHGVGELMTQVVLRGGGFLPMTPMAAAPEGNVKQAEPEKEDIMVMDTKLKIIEILQFILNVRLDYRISCLLCIFKREFDESNSQSSETSSGNSSQEGPSNVPGALDFEHIEEQAEGIFGGSEENTPLDLDDHGGRTFLRVLLHLTMHDYPPLVSGALQLLFRHFSQRQEVLQAFKQVQLLVTSQDVDNYKQIKQDLDQLRSIVEKSELWVYKGQGPDEPMDGASGENEHKKTEEGTSKPLKHESTSSYNYRVVKEILIRLSKLCVQESASVRKSRKQQQRLLRNMGAHAVVLELLQIPYEKAEDTKMQEIMRLAHEFLQNFCAGNQQNQALLHKHINLFLNPGILEAVTMQHIFMNNFQLCSEINERVVQHFVHCIETHGRNVQYIKFLQTIVKAEGKFIKKCQDMVMAELVNSGEDVLVFYNDRASFQTLIQMMRSERDRMDENSPLMYHIHLVELLAVCTEGKNVYTEIKCNSLLPLDDIVRVVTHEDCIPEVKIAYINFLNHCYVDTEVEMKEIYTSNHMWKLFENFLVDICRACNNTSDRKHADSILEKYVTEIVMSIVTTFFSSPFSDQSTTLQTRQPVFVQLLQGVFRVYHCNWLMPSQKASVESCIRVLSDVAKSRAIAIPVDLDSQVNNLFLKSHNIVQKTALNWRLSAR
**Q.** Does B1 bind?
**A.** no binding
